# In patent US20240279334A1 (AMBERSTONE BIOSCIENCES, published 2024):
# Residue numbers refer to the chain shown, from its start.
# T1: extracellular domain of cynomolgus monkey CD3E (cynomolgus monkey, UniProt Q95LI5 22-117)
# T1 construct: extracellular domain; This is the coated antigen of the ELISA; also called cyno CD3
# T1 sequence (looked up): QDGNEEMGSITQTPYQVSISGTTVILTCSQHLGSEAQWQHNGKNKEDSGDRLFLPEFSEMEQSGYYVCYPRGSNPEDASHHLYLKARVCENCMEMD
# B1: CD3(h10.v39)×TROP-2(RS7.v1) assembled in a human IgG1-Fc (Knobs-in-Holes) (bispecific antibody, not shown: a dimerising Fc or GST)
# heavy: EVQLVQSGAEVKKPGASVKVSCKASGYTFTSYYTHWVRQAPGQGLEWIGWIYPGDFNTKFNEKFKGRVTLTADTSASTAYMELSSLRSEDTAVYYCARDHYGYYYFDYWGQGTLVTVSS
# light: DIVMTQSPDSLAVSLGERATINCKSSQSLLNSRTRHNYLAWYQQKPGQPPKLLIYWATTRASGVPDRFSGSGSGTDFTLTISSLQAEDVAVYYCIQSYTGRTFGGGTKVEIK
# VH: EVQLQQSGSELKKPGASVKVSCKASGYTFTNYGMNWVKQAPGQGLKWMGWINTYTGEPTYTDDFKGRFAFSLDTSVSTAYLQISSLKADDTAVYFCARGGFGSSYWYFDVWGQGSLVTVSS
# VL: DIQLTQSPSSLSASVGDRVSITCKASQDVSIAVAWYQQKPGKAPKLLIYSASYRYTGVPDRFSGSGSGTDFTLTISSLQPEDFAVYYCQQHYITPLTFGAGTKVEIK
# B2: CD3 (h10.v38)×TROP-2 (RS7.v1) hIgG1-Fc (KiH) (bispecific antibody, not shown: a dimerising Fc or GST)
# heavy: B1 heavy with T34Y
# light: B1 light
# VH: B1 VH
# VL: B1 VL
# B3: h10.v38 (Fab) (Fab, V domains shown)
# VH: B1 heavy with T34Y
# VL: B1 light
# notes: Tested as a Fab
# B4: h10.v49 (Fab) (Fab, V domains shown)
# VH: B1 heavy with T34Y, G102H, Y103Q
# VL: B1 light
# notes: Tested as a Fab
# B5: h10.v23 (Fab) (Fab, V domains shown)
# VH: B1 heavy with T34V
# VL: B1 light
# notes: Purified and used as a Fab; also called anti-CD3 clone h10.v23
# B6: h10.v27 (Fab) (Fab, V domains shown)
# VH: B1 heavy with T34Y
# VL: B1 light with A61D
# notes: Tested as a Fab
# B7: h10.v1 (Fab) (Fab, V domains shown)
# VH: B1 heavy with T34V, H100A, G102S
# VL: B1 light with H36K, A61D, G100T
# notes: Tested as a Fab; the Fab constant domains are not; also called non-pH-selective conventional control clone; conventional anti-CD3 control antibody
# Experiments:
# [1] = molecular target: human CD3 on T cells (Jurkat reporter cells, human primary T cells) (human) (UniProt P07766); experiment: cell-based or functional assay
# [2] = molecular target: T2, recombinant human CD3E (ECD) (human, UniProt P07766 23-126); experiment: ELISA with human CD3E; % Binding plotted against pH (6.0 to 7.4), relative to pH 6.0; Fab concentration not shown on the sheet
# T2 construct: extracellular domain; This is the coated antigen of the ELISA; also called extracellular domain of human CD3E
# Protocol: (§1) The plates were then blocked with 200 μL ELISA assay diluents with BSA after discarding the coating solution and washing three times with washing buffer (pH-adjusted 1×PBS+0.05% Tween). […] The plates were washed three times with pH-adjusted 1×PBS buffer and incubated with horseradish peroxidase (HRP) conjugated with goat anti-human IgG Fc for about 30 minutes (min) to one hour. After washing three times, the bound HRP enzyme was detected by addition of 100 μL/well […] substrate (BioFX Laboratories, MD, USA) for about 1 to 5 min and then the detection of color was done based on 630 nm absorption. The pH-adjusted 1×PBS buffer of about pH 6.0, 6.1, 6.2, 6.3, 6.4, 6.5, 6.6, 6.7, 6.8, 6.9, 7.0, 7.1, 7.2, 7.3, 7.4, 7.5 or 7.6 can be based on a regular PBS buffer that is substantially the same as the well-known Cold Spring Harbor Lab's recipe which comprises 137 mM NaCl, 2.7 mM KCl, 10 mM Na₂HPO₄, 1.8 mM KH₂PO₄, and optionally 1 mM CaCl₂) and 0.5 mM MgCl₂, wherein the buffer's pH is adjusted using HCl or H₃PO₄. Alternatively, the pH-adjusted 1×PBS buffers can be based on a modified PBS recipe that comprises 118-146 mM NaCl, 2.7 mM KCl, 10 mM Na₂HPO₄, 1.8 mM KH₂PO₄, and optionally 1 mM CaCl₂) and 0.1-0.8 mM MgCl₂, iron (0-9 mM), sulfide (0.8-5 mM), and optionally further comprising one or more components selected from the following: 5-15 mM D-glucose, NaHCO₃(5-20 mM), 0.1 mM NEAA (non-essential amino acids), 2-20 mM lactic acid and 0.1-0.5% BSA, wherein the buffer's pH is adjusted using HCl or H₃PO₄.
# [3] = molecular target: T1, extracellular domain of cynomolgus …; experiment: ELISA with monkey CD3E; % Binding plotted against pH (6.0 to 7.4), relative to pH 6.0; Fab concentration not shown on the sheet
# Protocol: as §1, with “Alternatively, the pH-adjusted 1×PBS buffers can be based on a modified PBS recipe that comprises 118-146 mM NaCl, 2.7 mM KCl, 10 mM Na₂HPO₄, 1.8 mM KH₂PO₄, and optionally 1 mM CaCl₂) and 0.1-0.8 mM MgCl₂, iron (0-9 mM), sulfide (0.8-5 mM), and optionally further comprising one or more components selected from the following: 5-15 mM D-glucose, NaHCO₃(5-20 mM), 0.1 mM NEAA (non-essential amino acids), 2-20 mM lactic acid and 0.1-0.5% BSA, wherein the buffer's pH is adjusted using HCl or H₃PO₄.” left out
# human CD3 on T cells (Jurkat reporter cells, human primary T cells) (human), sequence (P07766 23-207): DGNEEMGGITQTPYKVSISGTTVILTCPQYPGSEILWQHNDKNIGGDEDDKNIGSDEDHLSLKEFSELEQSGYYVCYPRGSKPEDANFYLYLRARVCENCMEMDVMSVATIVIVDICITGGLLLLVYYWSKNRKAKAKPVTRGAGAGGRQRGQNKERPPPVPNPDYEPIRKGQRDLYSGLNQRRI
# T2 sequence (P07766 23-126): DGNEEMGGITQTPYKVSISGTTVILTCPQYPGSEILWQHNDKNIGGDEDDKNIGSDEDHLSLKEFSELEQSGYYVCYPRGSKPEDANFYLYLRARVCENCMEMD
binder,measurement,setting,value
B1,"percent killing of MDA-MB-468 cells at the pH 6.6 ECmax dose, pH 7.4",[1],16%
same,"percent killing of TROP-2-high MDA-MB-468 cells, pH 6.6",[1],100%
B2,"T cell mediated killing of DU-145 cells, EC50, pH 6.9",[1],144 nM
same,"T cell mediated killing of MDA-MB-468 cells, EC50, pH 6.6",[1],0.3 nM
same,"T cell mediated killing of MDA-MB-468 cells, EC50, pH 7.0",[1],9 nM
same,"T cell mediated killing of MDA-MB-468 cells, ECmax, pH 6.6",[1],30 nM
same,"fold reduction of MDA-MB-468 killing potency with human PBMCs (E:T about 5.5:1), pH 7.4 against pH 6.6",[1],80 fold
B3,binding result,[2],binds
B4,binding result,[2],binds
B5,binding result,[2],binds
B6,binding result,[2],binds
B7,binding result,[2],binds
same,binding result,[3],binds
